Test results from US8119594B1, “Method of modulating integrin mediated cellular activity and agents useful for same” (Inter-K Pty Limited, priority 1999, dated 2012).
Blank lines part the entries; values can stand above or below the compound they belong to. Where a SMILES comes first, the peptide text is derived from it. Where no end group is shown, it is not given here. The star is where a group is joined. Biotin = O=C1N[C@H]2[C@H](CS[C@H]2CCCCC(=O)*)N1

Key:
[1] = test system: p42/p44 MAP kinase activity in WiDr cells; assay: MAP kinase assay in WiDr cells after serum stimulation; format: cell-based, human; settings: WiDr wild-type; inhibitor 40 μM added one hour before serum
Method: (§1) Cultures of WiDr and HT29 mock and antisense β6 transfectants were established by seeding 1×10^6 cells/5 ml of culture medium in 25 cm^2 tissue culture flasks. Cells were incubated at 37° C. in humidified CO2 for 24 hours before serum starvation in serum-free medium for the next 16 hours. Foetal calf serum was then added to a final concentration of 10% for 30 mins before MAP kinase assays were performed. […] The ability of cells to transfer phosphate from [γ^32P]-ATP to a synthetic peptide that contains specifically a p42/p44 MAP kinase phosphorylation site was measured as described in the manufacturer's instructions. [^32P]-labelled peptides were spotted onto PE1-cellulose paper, unbound radioactivity was washed with 75 mM phosphoric acid and bound [^32P]-labelled peptides were measured by liquid scintillation counting. Protein estimation was performed on each cell lysate used and enzyme activity calculated as described in the manufacturer's instructions. […]
(§2) The effect of MEK (MAP kinase kinase) inhibitors U0126 and PD98059 on MAP kinase activity in WiDr and HT29 wild-type cells was tested in the absence/presence of serum. […] Serum was then added for 30 min and MAP kinase activity assessed before and after addition of serum. […]

[2] = test system: p42/p44 MAP kinase activity in HT29 cells; assay: MAP kinase assay in HT29 cells after serum stimulation; format: cell-based, human; settings: HT29 wild-type; inhibitor 40 μM added one hour before serum
Method: as §1, §2

[3] = test system: gelatinase B secretion by SW480 β6 transfectants; assay: Gelatinase B secretion by gelatin zymogram; format: cell-based, human; settings: 40 μM; 48 hours; serum-free; compared with controls
Method: SW480 β6 transfectants were cultured under serum-free conditions for 48 hours in the absence/presence of the MEK inhibitor PD98059 (40 μM) or DMSO (vehicle control). Tumour-conditioned medium was assayed for gelatinase B by analysis of equal protein loads in a gelatin zymogram.

[4] = test system: HT29 colon cancer cells; assay: WST-1 cell proliferation assay in HT29 cells; format: cell-based, human; settings: 10 μm, 24 hours, serum-free medium, FIG. 28
Method: HT29 and SW480 β6-expressing colon cancer cell lines were seeded into wells of 96-well microtitre plates (Nunclon) in Dulbecco's Modified Eagle's Medium (DMEM) supplemented with 10% foetal bovine serum, glutamine, Hepes, and antibiotics. […] The cell proliferation reagent WST-1 is designed to be used for the non-radioactive, spectrophotometric quantification of cell growth and viability in proliferation and chemosensitivity assays. […]
In particular, at the termination of experiments, 30 μl of WST-1 was added to 270 μl culture medium volume in each microtitre well and the colour change quantitated in an ELISA plate reader by measuring absorbance of the formazan product at 450 nm (using a reference wavelength of more than 600 nm). The mean absorbance readings from triplicate wells (±standard error of the means) after subtraction of background control wells (culture medium without cells) was determined.

[5] = test system: SW480 β6-expressing colon cancer cells; settings: for inhibition of cell proliferation (WST-1): SW480 β6-expressing, 30 μm, 24 hours, serum-free medium, FIG. 29
Method: HT29 and SW480 β6-expressing colon cancer cell lines were seeded into wells of 96-well microtitre plates (Nunclon) in Dulbecco's Modified Eagle's Medium (DMEM) supplemented with 10% foetal bovine serum, glutamine, Hepes, and antibiotics. Seeding cell densities were 3×10^3 cells per triplicate well for each condition tested and after 24 hours incubation of cell cultures in 5% CO2, 100% humidity at 37° C., the culture medium was exchanged for serum-free DMEM medium supplemented with insulin, transferrin, selenous acid, hydrocortisone, non-essential amino acids, glutamine, Hepes and antibiotics containing either peptide [sequence] (SEQ ID NO. 2) alone or penetratin-peptide complex at a concentration of 10 μm for HT29 cells or 30 μm for SW480 β6-expressing cells. Cell cultures were incubated for a further 24 hours following which cultures were photographed (Kodak Techpan Film at 100 ASA setting) and the experiments terminated by addition of the cell proliferation reagent WST-1 (Boehringer Mannheim) to monitor effects of the peptide on cell growth.
SW480 mock and SW480 β6 transfectants were cultured in DMEM medium supplemented with 1% foetal bovine serum in the presence of 20 μM seq. […] Percentage inhibition was assessed by the WST-1 colorimetric dehydrogenase assay described in Example 6.
Growth inhibition of SW480 cells expressing full length wild-type β6 exposed to seq.4 coupled to penetratin or [sequence] (SEQ ID NO. 2) peptide coupled to penetratin (5, 10, 20, 30 μM in DMEM minus foetal bovine serum) but which peptide contained alanine substitutions at the four positions indicated was assessed.

[6] = biological target: T1, ERK2 (Mus musculus, UniProt P63085); assay: ELISA binding of ERK2 to biotinylated integrin cytoplasmic domain peptides; settings: for binding of ERK2 to integrin β subunit cytoplasmic domain peptides: corrected for non-specific binding, FIG. 34; for binding of ERK2 (thrombin cleaved): ERK2 cleaved from GST-ERK2 by thrombin, compared to seq. 4, FIG. 23; for binding of GST.ERK2 to shorter test peptides: range of peptide concentrations, seq. 4 compared to fragment 2, seq. 3 compared to seq. 4, FIG. 20; for binding of non-phosphorylated ERK2: over a range of concentrations of ERK2, compared to fragments 1, 3 and 4, FIG. 18
T1 construct: made in house
T1 sequence (P63085 whole entry, the tested form may be a part): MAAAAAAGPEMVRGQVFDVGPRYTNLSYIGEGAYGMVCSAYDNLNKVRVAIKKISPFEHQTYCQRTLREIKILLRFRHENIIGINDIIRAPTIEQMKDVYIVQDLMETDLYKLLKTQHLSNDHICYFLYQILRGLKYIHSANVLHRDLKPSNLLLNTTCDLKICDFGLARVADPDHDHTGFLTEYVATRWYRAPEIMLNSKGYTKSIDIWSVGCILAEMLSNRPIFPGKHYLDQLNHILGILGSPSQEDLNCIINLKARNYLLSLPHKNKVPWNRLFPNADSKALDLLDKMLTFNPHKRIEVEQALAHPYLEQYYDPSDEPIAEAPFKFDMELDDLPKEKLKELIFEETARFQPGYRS
Method: Peptide fragments corresponding to regions of the cytoplasmic tail domain of the β6 subunit were screened in an enzyme-linked immunosorbent assay (ELISA) for binding with ERK2. The […] β6 cytoplasmic tail is shown in FIG. 16 as are the amino acid sequences for the cytoplasmic domains of the β1 to β3 subunits. In particular, four synthetic peptides designated fragment 1 to fragment 4 were prepared and biotinylated at the N-terminal end of each, respectively (Auspep Pty Ltd, Melbourne Australia).
(§3) Overlapping biotinylated fragments 1 to 4 were coated onto streptavidin coated polystyrene plates (Pierce, Rockford Ill. USA, Cat No. 15125) and the ELISA performed substantially according to manufacturers instructions. Briefly, wells are washed with 3×200 μl of wash buffer (TBS, 0.1% BSA, 0.05% Tween 20 or SuperBlock™ blocking buffer in TBS, Pierce, Prod. No. 37535) prior to addition of biotinylated peptides (100 μl) and incubation for 1 hr at room temperature to allow for capture of the peptides on the plate. Following another washing step, peptides were overlayed with GST-ERK, ERK (or JNK-1) alone at a volume of 100 μl per well, and the plates incubated for a further 1 hr at room temperature before removal of any unbound ERK by further washing.
Binding of ERK to the peptides is detected using 100 μl anti-ERK1/2 mAb SC1647 (Santa Cruz) as the primary antibody at a dilution of 1:700 (isotype matched antibody IgG2b is used as a control). This is followed by another washing step and addition of 100 μl rabbit anti-mouse antibody (Biorad) conjugated to alkaline phosphatase at a concentration of 1:1000 for 30 minutes again at room temperature. A 100 μl aliquot of detection reagent (alkaline phosphatase detection kit-Biorad) is then introduced into each well after a final washing step and allowed to react for 15-30 minutes at room temperature in the dark before absorbance is measured at 405 nm. All dilutions of peptides, MAP kinase and antibodies were performed using the wash buffer. GST-ERK is a fusion protein consisting of ERK coupled to glutathione-S-transferase and purified from host cells transfected with pGEX vector.

[7] = biological target: T2, JNK-1 (Homo sapiens, UniProt P45983); assay: ELISA binding of JNK-1 to β6 cytoplasmic tail peptide; settings: JNK-1 0.05-1.5 μm/100 μl; increasing peptide concentrations; FIG. 24
T2 construct: purchased Santa Cruz
T2 sequence (P45983 whole entry, species assumed): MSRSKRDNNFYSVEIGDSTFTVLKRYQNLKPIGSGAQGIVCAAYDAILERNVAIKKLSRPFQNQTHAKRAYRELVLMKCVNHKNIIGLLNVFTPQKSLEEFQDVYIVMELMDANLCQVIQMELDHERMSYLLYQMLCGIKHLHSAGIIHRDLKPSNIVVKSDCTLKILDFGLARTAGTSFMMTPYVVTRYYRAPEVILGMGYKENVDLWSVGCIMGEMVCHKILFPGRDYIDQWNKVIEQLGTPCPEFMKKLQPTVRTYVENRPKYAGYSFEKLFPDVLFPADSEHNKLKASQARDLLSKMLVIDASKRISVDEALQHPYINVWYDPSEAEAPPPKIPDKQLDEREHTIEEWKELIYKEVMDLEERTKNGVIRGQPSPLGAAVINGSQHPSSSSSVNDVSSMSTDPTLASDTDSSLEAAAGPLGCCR
Method: as §3
Briefly, 0.05-1.5 μm/100 μl of JNK-1 (Santa Cruz) was aliquoted into wells of a 96 well culture place containing increasing concentrations of the β6 cytoplasmic domain tail peptide used in Example 3. For comparison purposes, non-phosphorylated GST-ERK2 (0.05-1.5 μm/100 μl) was aliquoted into wells containing β6 cytoplasmic tail peptide or peptide fragments 1 or 2, respectively. Binding of JNK-1 was detected using mouse anti-JNK-1 mAb SC 474-G (Santa Cruz) and HRP-conjugated goat anti-mouse antibody.

Compound: N#CC(=C(/N)Sc1ccccc1N)/C(C#N)=C(\N)Sc1ccccc1N [U0126]
- serum-stimulated MAP kinase activity [1]: inhibitable
- serum-stimulated MAP kinase activity [2]: inhibitable

Compound: CC[C@H](C)[C@H](NC(=O)[C@H](CCCCN)NC(=O)[C@@H](NC(=O)[C@H](CCC(N)=O)NC(=O)[C@@H](N)CCCNC(=N)N)[C@@H](C)CC)C(=O)N[C@@H](Cc1c[nH]c2ccccc12)C(=O)N[C@@H](Cc1ccccc1)C(=O)N[C@@H](CCC(N)=O)C(=O)N[C@@H](CC(N)=O)C(=O)N[C@@H](CCCNC(=N)N)C(=O)N[C@@H](CCCNC(=N)N)C(=O)N[C@@H](CCSC)C(=O)N[C@@H](CCCCN)C(=O)N[C@@H](Cc1c[nH]c2ccccc12)C(=O)N[C@@H](CCCCN)C(=O)N[C@@H](CCCCN)C(=O)N[C@@H](CCCNC(=N)N)C(=O)N[C@@H](CO)C(=O)N[C@@H](CCCCN)C(=O)N[C@@H](C)C(=O)N[C@@H](CCCCN)C(=O)N[C@@H](Cc1c[nH]c2ccccc12)C(=O)N[C@@H](CCC(N)=O)C(=O)N[C@H](C(=O)NCC(=O)N[C@H](C(=O)N[C@@H](CC(N)=O)C(=O)N1CCC[C@H]1C(=O)N[C@@H](CC(C)C)C(=O)N[C@@H](Cc1ccc(O)cc1)C(=O)N[C@@H](CCCNC(=N)N)C(=O)O)[C@@H](C)O)[C@@H](C)O [penetratin-peptide complex] (H-RQIKIWFQNRRMKWKKRSKAKWQTGTNPLYR-OH; N-terminus and C-terminus assumed)
- inhibition of cell proliferation (WST-1) [4]: effective in inhibiting cell proliferation
- growth inhibition, dose response ([5]; SW480 full length wild-type β6, 5, 10, 20, 30 μM in DMEM minus foetal bovine serum, FIG. 33): progressive inhibition of proliferation in a dose-response manner
- inhibition of cell proliferation (WST-1) [5]: effective in inhibiting cell proliferation

Compound: RSKAKNPLYR (HOMO SAPIENS) [10(4), 4 is omitted]
- binding of ERK2 (thrombin cleaved) [6]: Comparable binding

Compound: RSKAKWQTGTNPLYR (HOMO SAPIENS) [seq. 4]
- binding of ERK2 to integrin β subunit cytoplasmic domain peptides [6]: significant binding
- binding of GST.ERK2 to shorter test peptides [6]: no reduction in binding
- inhibition of cell proliferation (WST-1) [4]: Only the carrier penetratin-peptide complex was effective
- inhibition of cell proliferation (WST-1) [5]: Only the carrier penetratin-peptide complex was effective

Compound: RSKAKWQTGTNPLYRGSTST (Biotin-RSKAKWQTGTNPLYRGSTST) [fragment 2, N-terminally biotinylated synthetic peptide of the β6 cytoplasmic tail]
- binding of non-phosphorylated GST.ERK2 to peptide fragment ([6]; GST.ERK2 0.25 μg/100 μl, peptide 1 μg/100 μl, FIG. 17): significant binding
- binding of non-phosphorylated ERK2 [6]: Significant binding

Compound: RSRARYEMASNPLYR (HOMO SAPIENS) [β5, peptide corresponding to a region of the β5 cytoplasmic domain]
- binding of ERK2 to integrin β subunit cytoplasmic domain peptides [6]: also found

Compound: β6 cytoplasmic tail peptide: peptide of the cytoplasmic tail domain of the integrin β6 subunit (HDRKEVAKFEAERSKAKWQTGTNPLYRGSTSTFKNVTYKHREKQKVDLSTDS; HOMO SAPIENS)
- binding of non-phosphorylated ERK2 [6]: Significant binding
- binding of JNK-1 [7]: Significant binding

More lines, main results first:

- gelatinase B secretion [3]: reduced gelatinase B secretion
Compound: COc1cccc(-c2cc(=O)c3ccccc3o2)c1N [PD98059]
- serum-stimulated MAP kinase activity [1]: inhibitable
- serum-stimulated MAP kinase activity [2]: inhibitable

- binding of ERK2 to integrin β subunit cytoplasmic domain peptides [6]: also found
Compound: RARAKWDTANNPLYK (HOMO SAPIENS) [β3, peptide corresponding to a region of the β3 cytoplasmic domain]

- binding of ERK2 (thrombin cleaved) [6]: Negligible binding
Compound: RSKAK (HOMO SAPIENS) [5 mer peptide]

- binding of GST.ERK2 to shorter test peptides [6]: substantially less
Compound: RSKAKWQTGT (HOMO SAPIENS) [seq. 3, 10 mer test peptide from the β6 cytoplasmic tail]
